Measurements published in PMC10184318, “The fission yeast cytokinetic ring component Fic1 promotes septum formation” (Biology Open, 2023).

B1: Fic1-MBP [S. pombe] / Cyk3-SH3-GST (aa1-66) [S. pombe] (parent complex)
chain 1: MSKNPLGTLVVRIWKAKNLPNKALVGKQSPYCVCRVGEVVKRTQTDKRSGQEPSWNAVLEFNIPSESYHIMKITVFHEGFRKHPHLIGDTVLSFEKAMKEELQSEWYELKNEFQFAGELSVQFKFIPTDPLYFDRASSKPVLQFPYSSVAALTPVPKKPSKPSKPRKKVPVSHPLPPTPPSREEHVSVPRESSLFTYEDDPLPSFPSPYMVDDYYTQDVFVSDNVNDYSYGVQNPTNPRLSVEDYDANHSSLPPVPPPHLILPTASSSQIFH
chain 2: MSIPKQLPCMVRALYAWPGEREGDLKFTEGDLIECLSIGDGKWWIGRHINTNTQGIFPSNFVHCLD

Variants of: B1
Assay: in vitro binding assay (GST pull-down, Coomassie Blue-stained SDS-PAGE, band quantification); parent: 1; read off a plot

Row | Variant | response [A.U.]
1 | chain 1 MSKNPLGTLVVRIWKAKNLPNKALVGKQSPYCVCRVGEVVKRTQTDKRSGQEPSWNAVLEFNIPSESYHIMKITVFHEGFRKHPHLIGDTVLSFEKAMKEELQSEWYELKNEFQFAGELSVQFKFIPTDPLYFDRASSKPVLQFPYSSVAALTPVPKKPSKPSKPRKKVPVSHPLAPTAPSREEHVSVPRESSLFTYEDDPLPSFPSPYMVDDYYTQDVFVSDNVNDYSYGVQNPTNPRLSVEDYDANHSSLPPVPPPHLILPTASSSQIFH [chain 1 P176A, chain 1 P179A] | ~0.19
2 | chain 1 MSKNPLGTLVVRIWKAKNLPNKALVGKQSPYCVCRVGEVVKRTQTDKRSGQEPSWNAVLEFNIPSESYHIMKITVFHEGFRKHPHLIGDTVLSFEKAMKEELQSEWYELKNEFQFAGELSVQFKFIPTDPLYFDRASSKPVLQFPYSSVAALTPVPKKPSKPSKPRKKVPVSHALPATPPSREEHVSVPRESSLFTYEDDPLPSFPSPYMVDDYYTQDVFVSDNVNDYSYGVQNPTNPRLSVEDYDANHSSLPPVPPPHLILPTASSSQIFH [chain 1 P174A, chain 1 P177A] | ~0.35
